According to patent US20260115250A1 (published 2026):
Positions count from the first letter of the chain named.

B1: T-069 (peptide)
peptide: VRGRLVQYRGEVQAMLGQSTEELRVRLASHLRKLRKRLLRDADDLQKRLAVYQA
B2: T-068 (peptide)
peptide: MEDVRGRLVQYRGEVQAMLGQSTEELRVRLASHLRKLRKRLLRDADDLQKRLAVYQA
B3: LDLR (receptor)
chain: not shown
B4: T-115 (peptide)
peptide: DHINKVQRKVTHEIERLFLGQSTEELRVRLASHLRKLRKRLLRDADDLQKRLAVYQA
B5: T-116 (peptide)
peptide: DAWERFRALFKELADYFRLGQSTEELRVRLASHLRKLRKRLLRDADDLQKRLAVYQA
B6: T-112 (peptide)
peptide: YKDFGERVERALGRQLEMLGQSTEELRVRLASHLRKLRKRLLRDADDLQKRLAVYQA
B7: T-114 (peptide)
peptide: B6 peptide with Y1L, E9A, G13R, R14E, L16F, M18D
B8: T-113 (peptide)
peptide: B6 peptide with Y1W, G13R, R14E, L16F, M18D
B9: T-118 (peptide)
peptide: LVARLLKELTAAMARLGRDAEDIRGNLFQYFDEVWAMLGQSTEELRVRLASHLRKLRKRLLRDADDLQKRLAVYQA
B10: T-117 (peptide)
peptide: RSGADALESALKELKRFIREWTLGQSTEELRVRLASHLRKLRKRLLRDADDLQKRLAVYQA
B11: T-120 (peptide)
peptide: DVKRLLKELTEAMAELARKAEDIRGNLDQYFRKVFAMLGQSTEELRVRLASHLRKLRKRLLRDADDLQKRLAVYQA

Each binder was assayed against T1, Low Density Lipoprotein Receptor (LDLR), recombinant (UniProt P01130 22-788) (assay: SPR; HBS + 0.005% P20, peptide).

Point of comparison: LASHLRKLRKRLLRSLVSQYFQTVTDYGKDLM [T-065], Kd 1.07 µM. Against it:
- LVQYRGEVQAMLGQSTEELRVRLASHLRKLRKRLLRDADDLQKRLAVYQA [T-070] — within 1.5-fold, 1.38 µM
- B1 — within 1.5-fold, 1.12 µM
- LARHLRKLRKRLARSLVSQYFQTVTDYGKDLM [T-066] — 1.9-fold higher, 2.06 µM
- HLRKLRKRLLRDGDKLQKRLAEYQARAKEAFDR [T-052] — within 1.5-fold, 1.18 µM
- HLRKLRKRLLRDGDKLQDRLAEYQARAKEAFDR [T-040] — 820-fold higher, 882 µM
- HLRKLVKRLFRDGDKLQDRLAEYQARAKEAFDR [T-059] — 7.2-fold higher, 7.72 µM
- HLRKLRKRLLRDGDKLYDRLAEYYARAKEAFDR [T-062] — 8.7-fold higher, 9.36 µM
- HLRRLRRRLLRDGDKLQDRLAEYQARAKEAFDR [T-041] — 660-fold higher, 701 µM
- LASHLRKLRKRLLRDADDLQKRLAVYQAGAREGAER [T-046] — 6.3-fold higher, 6.72 µM
- B2 — within 1.5-fold, 1.48 µM

The binders below were run against T-077 (assay: SPR; HBS + 0.005% P20, DMPC complex).

Binder B3 has a Kd of 189 µM.

Each binder was assayed against T-071 (assay: SPR; HBS + 0.005% P20, DMPC complex).

B3 was tested, and the Kd was 348 µM.

These binders were tested against T-050 (assay: SPR; HBS + 0.05% P20).

Work on B3 yielded a Kd of 528 µM.

These binders were tested against T-053 (assay: SPR; HBS + 0.05% P20).

B3 gave a Kd of 122 µM.

These binders were tested against T-060 (assay: SPR; HBS + 0.05% P20).

In the case of B3, the Kd is reported as 150 µM.

The binders below were run against T1, Low Density Lipoprotein Receptor … (assay: SPR; HBS + 0.005% P20, DMPC complex).

Point of comparison: LASHLRKLRKRLLRDADDLQKRLAVYQAGAREGAER [T-046], Kd 56.3 µM. Against it:
- LVQYRGEVQAMLGQSTEELRVRLASHLRKLRKRLLRDADDLQKRLAVYQA [T-070] — 83-fold lower, 0.68 µM
- B1 — 100-fold lower, 0.56 µM
- LARHLRKLRKRLARSLVSQYFQTVTDYGKDLM [T-066] — 510-fold lower, 0.11 µM
- LASHLRKLRKRLLRSLVSQYFQTVTDYGKDLM [T-065] — 310-fold lower, 0.18 µM
- LASHLRKLRKRLLRDADDLQKRLAVYQA [T-044] — 21-fold higher, 1160 µM
- LASHLRKLRKRLLRDGDKLQDRLAEYQARAKEAFDR [T-048] — 12-fold higher, 666 µM
- HLRKLRKRLLRDGDKLQKRLAEYQARAKEAFDR [T-052] — 3.6-fold higher, 202 µM
- HLRKLRKRLLRDGDKLYDRLAEYYARAKEAFDR [T-062] — within 1.5-fold, 52.9 µM
- B2 — 85-fold lower, 0.66 µM

Target: T1, Low Density Lipoprotein Receptor …
Assay: SPR; HBS + 0.005% P20, DMPC complex
Remark: another data set of the same source

Point of comparison: B6, Kd 0.17 µM. Against it:
- B4 — within 1.5-fold, 0.21 µM
- B5 — 1.6-fold higher, 0.28 µM
- B7 — the same, 0.17 µM
- B8 — 1.7-fold higher, 0.29 µM
- HLRKLRKRLLRSLVSQYRQTVTDYGKDL [T-110] — 7.1-fold higher, 1.2 µM
- HLRKLRKRLLRSLVSQYFQTVTDYGKDL [T-109] — 6.2-fold higher, 1.05 µM
- HLRKLVKRLLRSLVSQYRQTVTDYGEDL [T-111] — 2.7-fold higher, 0.46 µM
- B9 — 550-fold higher, 94.3 µM
- EELRVRLASHLRKLRKRLLR [T-074] — 450-fold higher, 77 µM
- B10 — 17-fold lower, 0.01 µM

Each binder was assayed against T-119 (assay: SPR; HBS + 0.005% P20, peptide).

B3 showed a Kd of 2.31 µM.

Target: T1, Low Density Lipoprotein Receptor …
Assay: SPR; HBS + 0.005% P20, peptide
Remark: another data set of the same source

Point of comparison: HLRKLRKRLLRSLVSQYFQTVTDYGKDL [T-109], Kd 3.15 µM. Against it:
- RSGADALESALKELKRFIREWT [T-101] — 3.7-fold higher, 11.7 µM
- LASHLRKLRKRLLR [T-072] — 2.6-fold higher, 8.27 µM
- B4 — 7.5-fold lower, 0.42 µM
- DAWERFRALFKELADYFR [T-087] — within 1.5-fold, 2.27 µM
- B5 — within 1.5-fold, 4.53 µM
- B6 — 2.8-fold lower, 1.14 µM
- B7 — within 1.5-fold, 2.7 µM
- B8 — 2.2-fold lower, 1.44 µM
- HLRKLRKRLLRSLVSQYRQTVTDYGKDL [T-110] — within 1.5-fold, 2.97 µM
- HLRKLVKRLLRSLVSQYRQTVTDYGEDL [T-111] — within 1.5-fold, 2.98 µM
- B9 — 9.8-fold lower, 0.32 µM
- EELRVRLASHLRKLRKRLLR [T-074] — within 1.5-fold, 2.37 µM
- B10 — 7.9-fold lower, 0.4 µM
- B11 — 3.9-fold lower, 0.8 µM

What follows are binders tested against T1, Low Density Lipoprotein Receptor … (assay: SPR; HBS + 0.05% P20).

Point of comparison: B6, Kd 0.72 µM. Against it:
- LASHLRKLRKRLLR [T-072] — 6.7-fold higher, 4.85 µM
- B4 — 3.9-fold higher, 2.81 µM
- B1 — 3.3-fold higher, 2.39 µM
- B5 — 1.7-fold higher, 1.21 µM
- B7 — 1.8-fold higher, 1.27 µM
- B8 — 2.5-fold higher, 1.82 µM
- HLRKLRKRLLRSLVSQYRQTVTDYGKDL [T-110] — 1.6-fold higher, 1.15 µM
- HLRKLRKRLLRSLVSQYFQTVTDYGKDL [T-109] — 1.7-fold higher, 1.2 µM
- HLRKLVKRLLRSLVSQYRQTVTDYGEDL [T-111] — within 1.5-fold, 1.06 µM
- B9 — 3.8-fold higher, 2.72 µM
- LARHLRKLRKRLARSLVSQYFQTVTDYGKDLM [T-066] — 3.4-fold higher, 2.42 µM
- LASHLRKLRKRLLRSLVSQYFQTVTDYGKDLM [T-065] — within 1.5-fold, 0.75 µM
- EELRVRLASHLRKLRKRLLR [T-074] — 3.4-fold higher, 2.43 µM
- B10 — 6.2-fold higher, 4.49 µM
- B11 — 16-fold higher, 11.8 µM
- LASHLRKLRKRLLRDADDLQKRLAVYQA [T-044] — 11-fold higher, 7.97 µM
- LARHLRKLRKRLARDGDKLQDRLAEYQARAKEAFDR [T-049] — 4.5-fold higher, 3.26 µM
- LASHLRKLRKRLLRDGDKLQDRLAEYQARAKEAFDR [T-048] — 7.3-fold higher, 5.24 µM
- HLRKLRKRLLRDGDKLQKRLAEYQARAKEAFDR [T-052] — 2.4-fold higher, 1.75 µM
- HLRKLRKRLLRDGDKLQDRLAEYQARAKEAFDR [T-040] — 7.7-fold higher, 5.54 µM
- HLRKLVKRLFRDGDKLQDRLAEYQARAKEAFDR [T-059] — 10-fold higher, 7.27 µM
- HLRKLRKRLLRDGDKLQDRLAEYQARAREAFDR [T-055] — 7.1-fold higher, 5.09 µM
- HLRKLRKRLLRDGDKLYDRLAEYYARAKEAFDR [T-062] — 3.1-fold higher, 2.23 µM
- HLRRLRRRLLRDGDKLQDRLAEYQARAKEAFDR [T-041] — 10-fold higher, 7.49 µM
- HLRKLRKRLLRDADDLQKRLAEYQARAKEAFDR [T-064] — 9.5-fold higher, 6.81 µM
- LASHLRKLRKRLLRDADDLQKRLAVYQAGAREGAER [T-046] — 4.9-fold higher, 3.56 µM
- LARHLRKLRKRLARDADDLQKRLAVYQAGAREGAER [T-047] — 4.5-fold higher, 3.26 µM
- B2 — 2.8-fold higher, 1.98 µM
